The text below walks through data of US20090137003A1.

Test [1] has as its target RSV protein F of strain B Wash/18537 (RSV B Wash/18537 (ATCC number VR-1580)) (UniProt P13843). The experiment in a line: cell-based or functional assay.
Test [2] has as its target RSV protein F of strain Long (RSV Long (ATCC number VR-26)) (UniProt P12568). Nature of the test: cell-based or functional assay.
Test [3] deals with RSV protein F of strain B1 (RSV B1 (ATCC number VR-1400)) (UniProt O36634). Nature of the test: cell-based or functional assay.
RSV protein F of strain B1 (RSV B1 (ATCC number VR-1400)), sequence (O36634 26-574 limits assumed): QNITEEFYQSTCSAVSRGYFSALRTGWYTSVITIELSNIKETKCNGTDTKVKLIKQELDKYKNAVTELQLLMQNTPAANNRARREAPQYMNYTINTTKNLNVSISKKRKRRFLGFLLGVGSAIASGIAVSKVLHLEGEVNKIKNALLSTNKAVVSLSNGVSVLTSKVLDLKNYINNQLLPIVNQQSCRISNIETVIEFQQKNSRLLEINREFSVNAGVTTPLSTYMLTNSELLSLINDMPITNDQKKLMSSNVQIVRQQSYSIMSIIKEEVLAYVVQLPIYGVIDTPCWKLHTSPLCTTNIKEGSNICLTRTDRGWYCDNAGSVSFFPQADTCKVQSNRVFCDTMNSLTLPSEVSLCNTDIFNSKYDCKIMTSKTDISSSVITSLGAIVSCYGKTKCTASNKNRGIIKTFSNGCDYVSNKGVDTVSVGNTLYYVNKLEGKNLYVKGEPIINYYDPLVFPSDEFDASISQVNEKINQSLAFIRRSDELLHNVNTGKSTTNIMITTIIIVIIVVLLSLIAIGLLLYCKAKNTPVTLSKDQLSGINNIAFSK
Test [4] concerns the target RSV protein G (recombinant G protein) (respiratory syncytial virus (RSV), strain not stated). Nature of the test: SPR (Biacore), Fab on recombinant antigen. Background: Surface plasmon resonance follows binding to a sensor surface in real time, without labels.

RSV protein F of strain Long (RSV Long (ATCC number VR-26)), sequence (P12568 26-574): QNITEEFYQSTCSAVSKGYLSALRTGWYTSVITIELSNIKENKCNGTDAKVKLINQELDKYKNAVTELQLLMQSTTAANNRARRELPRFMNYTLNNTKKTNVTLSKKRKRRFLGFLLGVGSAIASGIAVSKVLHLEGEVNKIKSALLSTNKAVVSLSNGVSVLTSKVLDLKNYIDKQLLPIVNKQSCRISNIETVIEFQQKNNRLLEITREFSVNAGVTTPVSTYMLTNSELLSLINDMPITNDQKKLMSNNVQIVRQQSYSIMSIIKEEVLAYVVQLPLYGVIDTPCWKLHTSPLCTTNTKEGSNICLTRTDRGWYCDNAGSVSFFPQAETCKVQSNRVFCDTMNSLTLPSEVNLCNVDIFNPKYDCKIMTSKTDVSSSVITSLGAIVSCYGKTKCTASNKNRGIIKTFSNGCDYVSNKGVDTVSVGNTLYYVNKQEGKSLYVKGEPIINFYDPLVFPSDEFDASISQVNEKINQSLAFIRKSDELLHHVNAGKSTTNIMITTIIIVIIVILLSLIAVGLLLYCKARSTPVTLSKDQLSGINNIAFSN
RSV protein F of strain B Wash/18537 (RSV B Wash/18537 (ATCC number VR-1580)), sequence (P13843 26-574): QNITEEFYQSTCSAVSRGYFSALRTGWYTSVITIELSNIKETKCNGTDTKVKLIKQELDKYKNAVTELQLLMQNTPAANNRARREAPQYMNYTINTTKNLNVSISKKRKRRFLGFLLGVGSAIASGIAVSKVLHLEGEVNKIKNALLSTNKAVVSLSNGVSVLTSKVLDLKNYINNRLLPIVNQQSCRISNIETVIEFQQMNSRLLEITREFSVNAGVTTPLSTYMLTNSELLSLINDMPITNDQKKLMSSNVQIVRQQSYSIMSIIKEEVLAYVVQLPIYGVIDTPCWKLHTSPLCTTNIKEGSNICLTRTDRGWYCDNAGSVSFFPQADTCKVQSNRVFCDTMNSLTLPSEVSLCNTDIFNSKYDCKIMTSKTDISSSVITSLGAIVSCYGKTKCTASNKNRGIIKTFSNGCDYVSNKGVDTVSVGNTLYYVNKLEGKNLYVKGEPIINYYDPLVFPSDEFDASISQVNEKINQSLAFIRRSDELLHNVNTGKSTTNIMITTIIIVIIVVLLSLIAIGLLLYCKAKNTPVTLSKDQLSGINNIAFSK

B1: antibody clone 831 (antibody, human IgG1, kappa, V domains shown)
VH: QVQLVQSGAEVKKPGASVKVSCKASANIFTYAMHWVRQAPGQRLEWMGWINVGNGQTKYSQRFQGRVTITRDTSATTAYMELSTLRSEDTAVYYCARRASQYGEVYGNYFDYWGQGTLVTVSS
VL: DIQMTQSPSTLSASVGDRLTITCRASQNIYNWLAWYQQKPGKAPKLLIYDASTLESGVPSRFSGSGSGTEFTLTISSLQPDDFATYYCQQYNSLSPTFGQGTKVEIKR
In the case of B1, the PRNT EC50 with complement, RSV 18537 in test [1] is 0.72 µg/mL. The molecule further had a PRNT EC50 with complement, RSV Long in test [2] of 0.08 µg/mL. In addition, the PRNT EC50 with complement, RSV B1 in test [3] was determined as 1.66 µg/mL.

B2: antibody clone 800 (antibody, human IgG1, kappa, V domains shown)
VH: QVQLVESGGAVVQPGRSLRLSCEVSGFSFSDYGMNWVRQGPGKGLEWVAVIWHDGSNKNYLDSVKGRFTVSRDNSKNTLFLQMNSLRAEDTAVYYCARTPYEFWSGYYFDFWGQGTLVTVSS
VL: AIQLTQSPSSLSASVGDRVTLTCRASQGITDSLAWYQQKPGKAPKVLLYAASRLESGVPSRFSGRGSGTDFTLTISSLQPEDFATYYCQQYSKSPATFGPGTKVEIRR
As for B2, the PRNT EC50 with complement, RSV Long in test [2] is 0.15 µg/mL. The PRNT EC50 with complement, RSV B1 in test [3] is 0.16 µg/mL.

B3: antibody clone 894 (antibody, human IgG1, kappa, V domains shown)
VH: QVQLVESGGGVVQPGKSLRLSCAASGFRFSDYGMHWVRQAPSKGLEWVAVIWHDGSNIRYADSVRGRFSISRDNSKNTLYLQMNSMRADDTAFYYCARVPFQIWSGLYFDHWGQGTLVTVSS
VL: EIVMTQSPATLSVSPGERATLSCRASQSVGNNLAWYQQRPGQAPRLLIYGASTRATGIPARFSGSGSGTEFTLTISSLQSEDFAVYYCQQYDKWPETFGQGTKVDIKR
In turn, B3 showed a PRNT EC50 with complement, RSV 18537 in test [1] of 0.07 µg/mL. In test [2], this molecule returned a PRNT EC50 with complement, RSV Long of 0.08 µg/mL.

B4: Fab fragment of antibody clone 796 (Fab)
VH: QVQLVESGGGVVQPGRSLRLSCAASGFSFSHFGMHWVRQVPGKGLEWVAIISYDGNNVHYADSVKGRFTISRDNSKNTLFLQMNSLRDDDTGVYYCAKDDVATDLAAYYYFDVWGRGTLVTVSS
light: DIVMTQTPLSLSVTPGQPASISCRSSQSLLRSDGKTFLYWYLQKPGQSPQPLMYEVSSRFSGVPDRFSGSGSGADFTLNISRVETEDVGIYYCMQGLKIRRTFGPGTKVEIKRTVAAPSVFIFPPSDEQLKSGTASVVCLLNNFYPREAKVQWKVDNALQSGNSQESVTEQDSKDSTYSLSSTLTLSKADYEKHKVYACEVTHQGLSSPVTKSFNRGEC
B4: in test [4], the Kd (in general, the constant that tells how readily two partners part at equilibrium) was determined as 0.48 nM; the koff (usually a measure of how fast the partners let go of each other) worked out at 0.000403 s⁻¹; the kon (commonly a measure of how fast the partners come together) was determined as 833000 M⁻¹ s⁻¹; the t1/2 is 28.7 min.

B5: antibody clone 880 (antibody, human IgG1, kappa, V domains shown)
VH: QITLKESGPTLVRPTQTLTLTCTFSGFSLSTSKLGVGWIRQPPGKALEWLALVDWDDDRRYRPSLKSRLTVTKDTSKNQVVLTMTNMDPVDTATYYCAHSAYYTSSGYYLQYFHHWGPGTLVTVSS
VL: DIQMTQSPSSLAASVGDRVTITCRASQTIASYVNWYQQKPGKAPNLLIYAASSLQSGVPSRFSGSGSGTDFTLTISSLQPEDFASYFCQQSYSFPYTFGQGTKLDIKR
Molecule B5 came in with a PRNT EC50 with complement, RSV 18537 in test [1] of 0.95 µg/mL. This molecule also showed a PRNT EC50 with complement, RSV Long in test [2] of 0.38 µg/mL. In addition, the PRNT EC50 with complement, RSV B1 in test [3] was determined as 0.4 µg/mL.

B6: Fab fragment of antibody clone 853 (Fab)
VH: EVQLVQSGAEVKKPGQSLKISCKTSGYIFTNYWIGWVRQRPGKGLEWMGVIFPADSDARYSPSFQGQVTISADKSIGTAYLQWSSLKASDTAIYYCARPKYYFDSSGQFSEMYYFDFWGQGTLVTVSS
light: EIVLTQSPGTLSLSPGERATLSCRASQSVSSNYLAWYQQKPGQAPRLLIYGASSRAAGMPDRFSGSGSGTDFTLTISRLEPEDFAVYYCQQYGNSPLTFGGGTEVEIKRTVAAPSVFIFPPSDEQLKSGTASVVCLLNNFYPREAKVQWKVDNALQSGNSQESVTEQDSKDSTYSLSSTLTLSKADYEKHKVYACEVTHQGLSSPVTKSFNRGEC
Consider B6, for which, in test [4], the Kd stood at 0.79 nM, the koff turned out to be 0.0014 s⁻¹, the kon was determined as 1.77e+06 M⁻¹ s⁻¹ and the t1/2 worked out at 8.25 min.

B7: Fab fragment of antibody clone 859 (Fab)
VH: QVQLVESGGGVVQPGRSLRLSCAVSGSSFSKYGIHWVRQAPGKGLEWVAVISYDGSKKYFTDSVKGRFTIARDNSQNTVFLQMNSLRAEDTAVYYCATGGGVNVTSWSDVEHSSSLGYWGLGTLVTVSS
light: DIQMTQSPSSLSASVGDRVTITCRASQGIRNYLAWYQQKPGKVPKLLVFAASTLQSGVPSRFSGSGSGTDFTLTISSLQPEDVATYYCQRYNSAPLTFGGGTKVEIKRTVAAPSVFIFPPSDEQLKSGTASVVCLLNNFYPREAKVQWKVDNALQSGNSQESVTEQDSKDSTYSLSSTLTLSKADYEKHKVYACEVTHQGLSSPVTKSFNRGEC
For the molecule B7, in test [4], the Kd turned out to be 0.12 nM, the koff turned out to be 4.63e-05 s⁻¹, the kon was 380000 M⁻¹ s⁻¹ and the t1/2 stood at 250 min.

B8: Fab fragment of antibody clone 816 (Fab)
VH: EVQLLESGGGLVQPGGSLRLSCVASGFTFSTYAMTWVRQAPGKGLEWVSVIRASGDSEIYADSVRGRFTISRDNSKNTVFLQMDSLRVEDTAVYFCANIGQRRYCSGDHCYGHFDYWGQGTLVTVSS
light: DIVMTQSPLSLPVTPGEPASISCRSSQSLLHSDGRYYVDWYLQKPGQSPHLLIYLASNRASGVPDRFTGSGSGTDFTLKISRVEAEDVGVYYCMQGLHTPWTFGQGTKVDIKRTVAAPSVFIFPPSDEQLKSGTASVVCLLNNFYPREAKVQWKVDNALQSGNSQESVTEQDSKDSTYSLSSTLTLSKADYEKHKVYACEVTHQGLSSPVTKSFNRGEC
Regarding B8, in test [4], the Kd stood at 0.09 nM, the koff amounted to 0.000178 s⁻¹, the kon was 2.02e+06 M⁻¹ s⁻¹ and the t1/2 was determined as 65 min.

B9: antibody clone 818 (antibody, human IgG1, kappa, V domains shown)
VH: QVTLRESGPAVVKPTETLTLTCAFSGFSLNAGRVGVSWIRQPPGQAPEWLARIDWDDDKAFRTSLKTRLSISKDSSKNQVVLTLSNMDPADTATYYCARTQVFASGGYYLYYLDHWGQGTLVTVSS
VL: DIQMTQSPSSLSASVGDRVTITCRASQTIASYVNWYQQKPGRAPSLLIYAASNLQSGVPPRFSGSGSGTDFTLTISGLQPDDFATYYCQQSYSYRALTFGGGTKVEIKR
Consider B9, for which the PRNT EC50 with complement, RSV 18537 in test [1] turned out to be 0.21 µg/mL. In test [2], this molecule registered a PRNT EC50 with complement, RSV Long of 0.15 µg/mL.

B10: antibody clone 827 (antibody, human IgG1, kappa, V domains shown)
VH: QVQLVQSGAEVKKPGASVKVSCRVSGHTFTALSKHWMRQGPGGGLEWMGFFDPEDGDTGYAQKFQGRVTMTEDTATGTAYMELSSLTSDDTAVYYCATVAAAGNFDNWGQGTLVTVSS
VL: DIQMTQSPSSLAASVGDRVTITCRASQFISSYLHWYQQRPGKAPKLLMYAASTLQSGVPSRFSGSGSGTDFTLTISSLQPEDFATYYCQQSYTNPYTFGQGTKLEIKR
Molecule B10 gave a PRNT EC50 with complement, RSV 18537 in test [1] of 0.1 µg/mL. The PRNT EC50 with complement, RSV Long in test [2] stood at 0.16 µg/mL.
